In publication PMC3829478:

Molecular target: Frizzled-7 receptor, endogenous (rat (endogenous in fetal rat brain growth cone particles and hippocampal neurons))

## Wingless-type family member 3A (recombinant mouse Wnt3a) (from UniProt P27467 19-352) (ligand)
  percent of hippocampal neurons with an identifiable Tau-1 containing axon (stage 3) after 20 h with 1.35 nM Wnt3a: > 55%
